# Results taken from patent US20250382355A1.
# Numbering of substitutions follows the chain as printed.
# B1: 11F8 VHH-Fc (Fc fusion)
# chain: QVQLVESGGGLVQAGGSLRLSCAASGRTVGYYAVGWFRQAPGKERDFVAAISWSGRNTNYADSVTGRFTIFRDNAKNTVDLQMNSLKPEDTAVYYCAADYWNYGSGSEVPNNYDTWGQGTQVTVSS
# B2: 15H1 VHH-Fc (Fc fusion)
# chain: QVQLVESGGGLAQAGGSLRLSCASSGLIFSGSAMGWFRQAPGKEREFVGVISWNGRTTYADSVKGRFTISRDDAVNMVWLQMNNLKPEDTAVYYCAADHLNYGSGDVNPRTYDYWGQGTQVTVSS
# B3: 1E4 VHH-Fc (Fc fusion)
# chain: QVLLVESGGGLVQAGGLLRLACSASGRTFTENVMGWFRQAPGKEREFVAAINWNTGSTYYSDSRKGRFTISKDNAKNTMFLQINNLKPEDTAVYYCGGTSSSYYYIGEFIPDYWGQGTQVTVSS
# B4: 3D4 VHH-Fc (Fc fusion)
# chain: QVQLVESGGGLVQPGGSLRLSCAASGFTLDLNSIGWFRQAPGKEREGVSCISPSGSRMHYADSVKGRFTISRDNAKNTVYLQMNSLKPEDTAVYYCATGSPSYHYCSMYGLEYDSWGQGTQVTVPS
# B5: 19C10 VHH-Fc (Fc fusion)
# chain: B4 chain with G55A, R57S, M58T, S100T, S115D, P125S
# B6: 9B2 VHH-Fc (Fc fusion)
# chain: QVQLVESGGGLVQPGGSLRLSCAASGFTLDNYAIGWFRQAPGKEREGVSCISSSDGDTQYADSVKGRFTISRDNAKNTVYLQMNSLKPEDTAVYYCAVEKVYARSWFFHLCSELDFGSWGQGTQVTVSS
# B7: 5D7 VHH-Fc (Fc fusion)
# chain: QVQLVESGGGLVQAGGSLRLSCAASGRTGSRYIMGWFRQAPGKEREFVAAINWRGDSTYYADSVKGRFTIARDNAKNTAYLQMNSLKPEDTAVYYCVADRGESYYYTRSTEYTYWGQGTQVTVSS
# B8: 15H7 VHH-Fc (Fc fusion)
# chain: QVQLVESGGRLVQAGGSLRLSCAAPGRTFRNLTLGWFRQAPGKEREFVASTSWPDDEMTYYTDSVKGRFTISRDNAKNTVYLQMNSLKPEDTAVYYCAAASWSGRSTLSYDYDYWGQGTQVTVST
# B9: 7A9 VHH-Fc (Fc fusion)
# chain: QVQLVESGGGLVQAGGSLRLSCSASGGTASRSAMGWFRQAPGKEREFVAGISRRNSGSTYVADSYEDSVKGRFTISRDNAKNTIYLQMNSLKPEDTAVYYCAAEPTLGWYVPRRSVEYEYWGQGTQVTVSS
# B10: 13C8 VHH-Fc (Fc fusion)
# chain: QVQLVESGGGLVQAGGSLRLSCAASGRTVNKYMTGWFRQTPGKEREFVASIDWSSTTTHYANSVKGRFTISRDKVKNTVYLQMNGLKPEDTAVYYCAAHQDSSYGYTILPIDYDSWGQGTQVTVSS
# B11: 10B8 VHH-Fc (Fc fusion)
# chain: QVQLVESGGGLVQPGGSLRLSCAASGITLDYYAIAWFRQAPGKEREGVSCFCSSDGDIRYADSVKGRFTISRDNAKNTVYLQMNSLKPEDTAVYYCATERVYSSTWFFHRYSELDFGSWGRGTQVTVSS
# B12: 19B8 VHH-Fc (Fc fusion)
# chain: QVQLVESGGGLVQAGGSLRLSCAASGRTFTNYAMGWFRQAPGKEREFVAAISWSGGGTNYADSVKGRFTISRDNAKNTVYLQMNSPKPEDTAVYYCATTLGYYGSSSRLYEYWGQGTQVTVSS
# B13: 8E9 VHH-Fc (Fc fusion)
# chain: QVQLVESGGGLVEAGGSLRLSCVASGSSSSINAMGWYRQAPGKQRELVASISHDGETKYANSVKGRFTISRGNAKNTIYLQMNSLKPEDTAVYYCVGDVAWVVVAGEYDYWGQGTQVTVSS
# B14: 19E10 VHH-Fc (Fc fusion)
# chain: QVQLVESGGGLVQPGGSLRLSCVASGSTISINSMGWYRQAPGKAREMVATITNDGPIKYADPVKGRFTISRDNPKNTVYLQMNSLKPEDTAVYYCVADRAYWLAGEWEYWGQGTQVTVSS
# B15: 5A6 VHH-Fc (Fc fusion)
# chain: QVQLVESGGGLAQAGGSLRLSCATSGLTFSMSAMGWFRQAPGNEREFVGVINWNGGSSRYADSVRGRFTISRDNAKNTVYLQMNSLKPEDTGVYYCAADALNIGTGEVNPRLYDYWGQGTQVMVSS
# B16: 1A11 VHH-Fc (Fc fusion)
# chain: QVQLVESGGGLVQAGGSLRLSCEVSGSIYSINSMGWYRQAPGKQRELVAGIVSDGRINYADSVKGRFTISRAKNTVYLQMNSLKPEDTAVYYCAADRAFVYAGDYDYLGQGTQVTVSS
# Target: SARS-CoV-2 WT spike on rVSV-deltaG-Luc pseudovirus (SARS-CoV-2), P0DTC2
# Assay: cell-based or functional assay
row,Binder,pseudovirus neutralization IC50 [nM]
1,B1,1.07
2,B2,5.04
3,B3,0.31
4,B4,1.22
5,B5,1.49
6,B6,1.93
7,B7,6.52
8,B8,1.33
9,B9,110
10,B10,6.69
11,B11,0.68
12,B12,53.5
13,B13,12.4
14,B14,1.53
15,B15,8.57
16,B16,0.57
